The values below are quoted from earlier work in article PMC4451881.

The target of this data set is CK2beta (Homo sapiens) (UniProt P67870).
CK2beta (Homo sapiens), sequence (P67870 2-215): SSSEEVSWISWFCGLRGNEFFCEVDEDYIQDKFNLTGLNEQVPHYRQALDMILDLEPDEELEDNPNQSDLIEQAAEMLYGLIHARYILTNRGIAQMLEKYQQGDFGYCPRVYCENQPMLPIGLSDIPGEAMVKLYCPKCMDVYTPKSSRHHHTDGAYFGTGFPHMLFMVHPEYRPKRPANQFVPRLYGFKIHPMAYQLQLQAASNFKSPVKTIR

CK2alpha, sequence (P68400 whole entry): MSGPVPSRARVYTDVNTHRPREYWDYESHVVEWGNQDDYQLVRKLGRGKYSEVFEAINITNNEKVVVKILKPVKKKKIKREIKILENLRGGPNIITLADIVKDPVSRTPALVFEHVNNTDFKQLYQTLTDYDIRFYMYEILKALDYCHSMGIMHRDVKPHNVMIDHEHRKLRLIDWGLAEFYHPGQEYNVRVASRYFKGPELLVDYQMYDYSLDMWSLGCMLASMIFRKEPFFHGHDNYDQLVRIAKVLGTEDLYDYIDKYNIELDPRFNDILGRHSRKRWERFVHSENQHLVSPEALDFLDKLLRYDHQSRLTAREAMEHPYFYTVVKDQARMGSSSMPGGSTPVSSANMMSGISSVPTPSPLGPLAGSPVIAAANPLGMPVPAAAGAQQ

As for CK2alpha (from UniProt P68400), the Kd is 4 nM.
